Results: PMC2660415

Columns and labels:
Test in all cases: SEC; gel filtration on Superdex 200 (AKTA-FPLC) followed by SDS-PAGE; P proteins released from GST by thrombin; P particles form a peak at ~830 kDa and the P dimer at ~69 kDa
[1] = biological target: Norwalk virus (GI-1) P domain with N-terminal CNGRC peptide, wild type (P particle / P dimer) (Norwalk virus (GI-1))
[2] = biological target: VA207 (GII-9) norovirus P domain with C-terminal … peptide, wild type (P particle / P dimer) (norovirus strain VA207 (GII-9))
[3] = biological target: MOH (GII-5) norovirus P domain with C-terminal … peptide, wild type (P particle / P dimer) (norovirus strain MOH (GII-5))
[4] = biological target: Boxer (GI-8) norovirus P domain with C-terminal … peptide, wild type (P particle / P dimer) (norovirus strain Boxer (GI-8))

Substance: Norwalk virus (GI-1) P domain with N-terminal CNGRC peptide, wild type (P particle / P dimer) (domain or fragment)
- efficiency of P particle formation [1]: 70%

Substance: VA207 (GII-9) norovirus P domain with C-terminal … peptide, wild type (P particle / P dimer) (domain or fragment)
- efficiency of P particle formation [2]: 90%

Substance: MOH (GII-5) norovirus P domain with C-terminal … peptide, wild type (P particle / P dimer) (domain or fragment)
- efficiency of P particle formation [3]: 80%

Substance: Boxer (GI-8) norovirus P domain with C-terminal … peptide, wild type (P particle / P dimer) (domain or fragment)
- efficiency of P particle formation [4]: 80%
